{"source": "the nanobody polyreactivity screen of Harvey et al. (2022)"}
{"experiment": "yeast display, Sf9 membrane polyspecificity reagent, FACS + sequencing; frameworks hold sequencing errors", "how_it_was_run": "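A nanobody's polyreactivity label depends on the gate it was sorted from. Yeast display cells were stained with 10% biotinylated, detergent-solubilized Sf9 membrane reagent for 1 hour at 4 °C, enriched on streptavidin microbeads and sorted by FACS. The low and high (top ~1%) gates were set on anti-HA fluorescence for expression and streptavidin fluorescence for reagent binding.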"}
{"sequence": "QVQLGESGGGLVQAGGSLRLSCAASGSTFWPYAMGWYRQAPGKERELVATIRWSGGSTSYADSVKGRFTISRDNAKNTVYLQMNSVKPEDTAVFYCAARDFHYYRFKTYGYWGQGTQVTVSS", "polyreactivity (PSR sort gate)": "high polyreactivity"}
{"sequence": "QVQLVESGGRLVQAGGSLRLSCAASGFTFSEYAMRWYRPAPGKVRELVAAINDGGGSTYYADSVKGRFTISRDNAKNTVYLQMNSLKPEDTAVYYCAVEQRLRYGYDYWGQGTQVTVSS", "polyreactivity (PSR sort gate)": "high polyreactivity"}
{"sequence": "QVQLVESGGGLVQAGGSLRLSCAASGSTFSYYTMGWYRQSPGKERELVAVISTSGGNTYYADSVKGRFTISRDNAKNTVYLQMNSLKPEDTAVYYCAAAYPRVTYKNGYYWGQGTQVTVSS", "polyreactivity (PSR sort gate)": "high polyreactivity"}
{"sequence": "QVQLVESGGGLVQAGGSLRLSCAASGIIFWGNAMGWYRQAPGKERELVATITGRGGSTYYADSVKGRFTISRDNAKNTVYLQMNSLKPEDTAVYYCAASGGRPIFFYDVWGGIVRHDYWGQGTQVTVSS", "polyreactivity (PSR sort gate)": "low polyreactivity"}
{"sequence": "QVQLVESGGGLVQAGGSLRLSCAASGRTFIKYAMGWYRQAPGKERELVAAITYSAGSTSYADSVKGRFTISRDNAKNTVYLQMNSLKPEDTAVYYCNAVPTWWTQEVGSYKSLGYWGQGTQVTVSS", "polyreactivity (PSR sort gate)": "low polyreactivity"}
{"sequence": "QVQLVESGGGLVQAGGSLRLSCAAWSIFYLNAMGWYRQAPGKERELVAAISSAGSTYYADSVKGRFTISRDNAKNTVYLQMNSLKPEDTAVYYCAAYWYDSPGVTEIWYDYWGQGTQVTVSS", "polyreactivity (PSR sort gate)": "low polyreactivity"}
{"sequence": "QVQLVESGGGLVQAGGSLRLSCAASGYIFGWYDMGWYRQAPGKERELVAAIDSGGNTYYADSVKGPFTISRDNAKNTVYLQMNSLKPEDTAVYYCNADYWGWSGPPYEYWGQGTQVTVSS", "polyreactivity (PSR sort gate)": "high polyreactivity"}
{"sequence": "QVQLVESGGGLVQAGGSLRLSCAASGRNFKNYDMVWYRQAPGKERELVADISWRSGSTNYSDSVKGRFTISRDNAKNNVYLQMNSLKPEDTAVYYCASKRRISGWSQFTSYADFDYWGQGTQVTVSS", "polyreactivity (PSR sort gate)": "low polyreactivity"}
{"sequence": "QVQLVESGGGLVQAGGSLRLSCAASGSIFISYAKGWYRQAPGKERELVAAINYSGGSTYYADSVKGRFTISRDNAKNTVYLQMNSLKPEDTAVYYCAKRSTYRYYGYKLRDYWGQVTQVTVSS", "polyreactivity (PSR sort gate)": "low polyreactivity"}
{"sequence": "QVQLVESGGGIVQAGGSHRVICAASGRIFRRYTMGWYRQATGKERDLVATITWDGVSTYYADSVKGRFTISRDNAKKTDYLQMNSLKPEDTAGYYCAARRVYLVGGRYDSWGQGTQVTVSS", "polyreactivity (PSR sort gate)": "high polyreactivity"}
{"sequence": "QVQLVESGGGLVQAGGSLRLSCAASGRIFGRNAMGWYRQAPGKERELVAAITYSGGRTYYADSVKGRFTISRDNAKNTVYLQMNSLKPEDTAVYYCAAYSFAYRYNYWGQGTQVTVSS", "polyreactivity (PSR sort gate)": "high polyreactivity"}
{"sequence": "QVQLVESGGGLVQAGGSLRLSCAASGFIFGTYAMGWYIQAPGKERELVAAISTGATYYADSVKGRFTISRDNAKNTVYLQMNSLKPEDTAVYYCAAPRTYYLRYRWYLYEGDYWGQGTQVTVTS", "polyreactivity (PSR sort gate)": "low polyreactivity"}
{"sequence": "QVQLVESGGGLVQAGGSLRLSSAASGSTFGPYAMGWYRQAPGKERELVAAISRRGTSTYYADSVKGRFTISRDNAKNTVYLQMNSLKPEDTAVYYCNAVTSSFFNRDSDYWGQGNQVTVSS", "polyreactivity (PSR sort gate)": "high polyreactivity"}
{"sequence": "QVQLGESGGGLVQAGGSLRLSCAASGNTFYRNAMGWYRQAPGKERELVAAIDYSAGSTYYADCVKGRFTISRDNAKNTVYLQMHSLKPEDTADDYCAAVARTSRGRRYYSWGQGTQVTVSS", "polyreactivity (PSR sort gate)": "low polyreactivity"}
{"sequence": "QVQLVESGGGLVQAGGRLRLSCAASGRTFVQYAIAWYRQAPGKEREFVAAISSRVGSTYYADSVKGRFTISRDNAKNTVYLQMNSLKPEDTAVYYCNRDLVPRFDYWGQGTQVTVSS", "polyreactivity (PSR sort gate)": "low polyreactivity"}
{"sequence": "QVQLVESGGGLVQAGGSLRLSCAASGRIFGLYAMGWYRQAPGKERELVAAITSSTGSTYYADSVKGRFTISRDNAKNTVYLQMNSLKPEDTAVYYCAADLYSPSIYGYIYYTWLDYWGQGTQVTVSS", "polyreactivity (PSR sort gate)": "high polyreactivity"}
{"sequence": "QVQLVESGGGLVQAGGSLRLTCAASGNIFYSYAMGWYRQAPGKERELVAAITIDGSTTYADSVKGRFTISRDNAKNTVYLQMNSLKPEDTAVYYCAKEGEAYPATYRYQFDYWGQGTQVTVSS", "polyreactivity (PSR sort gate)": "low polyreactivity"}
{"sequence": "QVQLVESGGGLVQAGGSLRLSCAASGRTFYRNTMGWYRQAPGKERELVAAITRSGGSTYYADSVKGRVTISRDNAKNTVYLQMNSLKPEDTAVYYCAASRTYYAPYGYWGQGTQVTVSS", "polyreactivity (PSR sort gate)": "high polyreactivity"}
{"sequence": "QVQLEESGGGLVQAGGSLRLSCAASGFIFGYYAMGSYRQAPGKERELVAAISKSGGRTRYADSVKGRFTISRDNAKNTVYLQMNSLKPVDTAVYYCATYDPARSTQGYDYWGQGTQVTVSS", "polyreactivity (PSR sort gate)": "high polyreactivity"}
{"sequence": "QVQLVESGGGLVQAGGSLRLSCAASGLTFKRYAMGWYRQAPGKERELVAGINYSSGSTYYADSVKARFTISRDNAKNTVYLQMNSLKPEDTAVYYCAADGGISAGANSGYDYWGQGTQVTVSS", "polyreactivity (PSR sort gate)": "high polyreactivity"}
{"sequence": "QVQLVESGGGLVQAGGSLRLSCAASGSTLYVNAMGWYRQAPGKERELVAAISWSGGSTNYADSVKGRFTISRDNAKNTVYLQMNSLKPEDTAVYYCNVDSVVWDNAWYLYDYWGQGTQVTVSS", "polyreactivity (PSR sort gate)": "low polyreactivity"}
{"sequence": "QVQLVESGGGLVQAGGSLRLSCAASGFTYRTNAMGWYRQAPGKERELVAAISTGARTYYADSVKGRFTISRDNAKNTVYLQMNSLKPEDTAVYYCNKVLRRFLSRYDYWGQGTQVTVSS", "polyreactivity (PSR sort gate)": "high polyreactivity"}
{"sequence": "QVQLVESGGGLVQAGGSLRLSCADSGFSIWWYDMGWYRQAPGKERELVAAITADGGDTYYADSVKGRFTISRDYANHTDYLQMNSLKPEDTAVYYCAAEYDVYGYYYWGQGTQVTVSS", "polyreactivity (PSR sort gate)": "high polyreactivity"}
{"sequence": "QVQLVESGGGLVQAGGSLRLSCAASGSTFVYNAMGWYRQAPGKEREFVAVINWSGGRTYADSVKGRFTISRDNAKNTVYLQMNSLKPEDTAVYYCNAERRTYRVALQYRRYDYWGQGTQVTVSS", "polyreactivity (PSR sort gate)": "high polyreactivity"}
{"sequence": "QVQLVESGGGLVQAGGSLRLTCAASGSSLDHYTMGWYRQAPGKEMELVAGIRWTGGRTYYADSVKGRFTISRDNAKNTVYLQMNSLKQEDNAVYYCAKTGWYGPVLRFYYWGQGTQVTVSS", "polyreactivity (PSR sort gate)": "high polyreactivity"}
{"sequence": "QVQLVESGGGLFQAGGSLRISCAASGTFVTYMGWYRQAPGKERELVAAIRNGGSTNYADSVKGRFTISRDNAKNTVYLQMNSLKPDDTAVYYCAARVTYSRGYRGGSRNKYDYWGQGTQVTLSS", "polyreactivity (PSR sort gate)": "low polyreactivity"}
{"sequence": "QVQLQESGGGLVQAGGSLRLSCASSGSIFKVVDKGLYRQAPAKEREFVATIGEGGNTYYADSVKGRFTISRDNAKNTVYLQMNSLKPEDTAVYFYAVVLGTSYRYTYWGQGTQVTVSS", "polyreactivity (PSR sort gate)": "low polyreactivity"}
{"sequence": "QVQLVESGGGLVQAGGSLRLICAASGSTFYHNVMGWYRQAPGKERELLASIYRGGSTYYADSVKGRFTISRDNAKNTVYVQMNSLKPEDTAVYYCAADLSSDSSYSGYDYSGQGTQVTVSS", "polyreactivity (PSR sort gate)": "low polyreactivity"}
{"sequence": "QVQLVESGGGLVQAGGSLRLSCAASGSIFVWNAMGWYRPAPGKERELVAAISYTDGSTYYADSVKGRFTISRDNAKNTVYLQMNSLKPVDTAVYYCAAAITPSYTGSEYDYWGQGTQVTVSS", "polyreactivity (PSR sort gate)": "low polyreactivity"}
{"sequence": "QVQLEESGGRLVQAGGSLRLSCAASGRTFDGNTMGWYRQAPGKERELVAAITYSGTSTYYADSVKGRFTISRDNAKNTVDVQMNSLKPEDTAVYYCNKPRYYSTYRRYYWGQGTQVTVSS", "polyreactivity (PSR sort gate)": "high polyreactivity"}
{"sequence": "QVQLVESGGGLVQAGGSLRLSCASSGRTFYDNTMGWYRQAPGKERELVAGISYSGGSTYYADSVKGRFTISRDNAKNTVYLQMNSLKPEDTAVYYCNAELYFPYFDGKTRHGGYWGQGTQVTVSS", "polyreactivity (PSR sort gate)": "low polyreactivity"}
{"sequence": "QVQLVESGGGLVQAGGSLRLSCAASGFTFQGYVMGWYRQAPGKERELVARITNDGSTTYADSVKGRFTISRDNAKNTVYLQMNTLKPEDTAVYYCARPYRFWRYYGMYYWGQGTQVTVSS", "polyreactivity (PSR sort gate)": "high polyreactivity"}
{"sequence": "KVQLVESGGGLVQAGGSLRLSCAASGSTFQYYAMGWYRQAPGTERELVAAITSGGSTNYADSVKGRFTISRDNAKNTVYLQMNSLKPEDTAVYYCNADSSGWFPFDYWGQGTQVTVSS", "polyreactivity (PSR sort gate)": "low polyreactivity"}
{"sequence": "QVQLVESGGGLVQAGGSLSLSCAASGSIFDYNAMGWYRQAPGKEREVVAAIDGGSTYYADSVKGRFTISRDNAKNNVYLQMNSLKPEDTAVDYCAAEGFQADTYYWPMESWGQGTQVTVSS", "polyreactivity (PSR sort gate)": "low polyreactivity"}
{"sequence": "QVQLVESGGGLVQAGGSLRLSCAASGSIFSRNAMGWYRQEPGKEREFVAAISYSSGSTYYADSVNGRFTISRDNAKNTVYLQMNSLKPEDTAVYYCAADTTKLQGVEGDYWGQGTQVTVSS", "polyreactivity (PSR sort gate)": "low polyreactivity"}
{"sequence": "QVQLVETGGRKVQPGGSLRLSCAASRRTFDHNAMGWYRQAPGKERELVAAITWSGGITDYADSVKRPFTISRDNAKNTVYLEMFSLKPEDTAVWGQGTQVSVSS", "polyreactivity (PSR sort gate)": "low polyreactivity"}
{"sequence": "QVQLVESGGGLVQAGGSLRLSCAASGYTFDYYAMGWYRQAPGKERELVAAIRRGGSTYYADSVKGRFTISRDNAKNTVYLQMNSLKPEDTAVYYCAAVIYRDGTIYDYWGQGTQVTVSS", "polyreactivity (PSR sort gate)": "high polyreactivity"}
{"sequence": "QVQLVESGGGLFQAGGSLRLSCAATGSIFDYYAMGWYRQAPGKERELDGTITSGVSTYYADSVKGRFTISRDNAKNTVYLQMISLKPEDTAVYYCARDYAKSQDLYKYDYWGQGTQVTGSS", "polyreactivity (PSR sort gate)": "low polyreactivity"}
{"sequence": "QVQLVESGGGLVQAGGSLRLSCAASGIIFARNAMGWYRQAPGKERELVATISRNGGRTYYADSVKGRFTISRDNAKNTVYLQMNSLKPEDTAVYYCARPYYGSWHSYGVDYWGQGTQVTVSS", "polyreactivity (PSR sort gate)": "high polyreactivity"}
{"sequence": "QVQLVESGGGLDQAGGSLRLSCAASGRTFQGYAMGWYRQAPGKERELVAAISRSGGRTYYADSVKGRFTISRDNAKNTVYLQMNSLKPEATAVYFCATDAFRDYGYWGQGTQVTLSS", "polyreactivity (PSR sort gate)": "high polyreactivity"}
{"sequence": "QVQLVESGGGLVQAGGSLRLSCAASGSIFRKYAMGWYRQATGKERELVAVITTDGSTNYADSVKGRFTISRDNAKNTVYLQMNSLKPEDTAVYYCNAVRSSIGTDNDYWGQGTQVTVSS", "polyreactivity (PSR sort gate)": "low polyreactivity"}
{"sequence": "QVQLVESGVGLVQAGGSLRLSSADSGRTSPGNAMGWYRQAPGKETELVAAINVSGGSTYYADSVKGRFTISRDNAKNTVYLQMNSLKPEDTAVYDCATDTGYPYSYDLYDSYYWGQGTQVTVSS", "polyreactivity (PSR sort gate)": "low polyreactivity"}
{"sequence": "QVQLVESGGGLVQAGGSLRLSCAASGSIFNIYAMGWYRQAPGKERELVATITGIADSTYYADSVKGRFTISRDNAKNTVYLQMNSLKPEDTAVYYCAAIYGSRYTTGQTRRDYYSWGQGTQVTVSS", "polyreactivity (PSR sort gate)": "low polyreactivity"}
